Laboratory results as given in patent publication US20190322746A1 (TESARO, published 2019).

Target: T1, T Cell Immunoglobulin and Mucin Domain-3 (TIM-3) on circulating CD14+ monocytes of patients (human, UniProt Q8TDQ0 22-301)
T1 construct: whole, on cells; Endogenous receptor on peripheral blood monocytes of patients in a first-in-human study; also called HAVCR2; TIM-3 receptor
Experiment: flow cytometry receptor occupancy on circulating monocytes, whole blood of treated patients
Procedure: To measure binding in the RO assay, whole blood was collected from patients at baseline (Day 1 predose), 48 hours following the first dose (Day 3) and prior to the second dose (Day 15 predose) for the Q2W schedule. […] Samples for occupancy measurement on the Q3W schedule were collected as follows: Day 1 predose, Day 5, Day 15 and Day 22.
All samples were pre-dose, with occupancy measured after a single dose on day 1. The occupancy ratio (free TIM-3:total TIM-3) is determined at various time points (for example, timepoints can include day 1, day 3, day 15, day 22, and day 29).

B1: TSR-022 (antibody, human IgG4 S228P, kappa, V domains shown)
VH: EVQLLESGGGLVQPGGSLRLSCAAASGFTFSSYDMSWVRQAPGKGLDWVSTISGGGTYTYYQDSVKGRFTISRDNSKNTLYLQMNSLRAEDTAVYYCASMDYWGQGTTVTVSS
VL: DIQMTQSPSSLSASVGDRVTITCRASQSIRRYLNWYHQKPGKAPKLLIYGASTLQSGVPSRFSGSGSGTDFTLTISSLQPEDFAVYYCQQSHSAPLTFGGGTKVEIKR
notes: Humanized IgG4 (human IGHG4*01 scaffold) with a kappa light chain (IGKC*01); also called anti-TIM-3 antibody; exemplary anti-TIM-3 antibody
  binding result: binds
